Experiments:
[1] = target: T1, human ICOS on human T cells (human, UniProt Q9Y6W8 21-167); test: flow cytometry, activated human CD4 T cells, FITC MFI, donor 1149M52
T1 construct: endogenous receptor on primary cells; also called ICOS on CD4+ and CD8+ T cells of healthy human donors
T1 sequence: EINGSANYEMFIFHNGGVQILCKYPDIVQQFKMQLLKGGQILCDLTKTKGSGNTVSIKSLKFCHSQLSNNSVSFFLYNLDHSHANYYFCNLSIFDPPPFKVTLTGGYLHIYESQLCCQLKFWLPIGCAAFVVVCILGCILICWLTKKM
Procedure: (§1) Binding of H2L5 hIgG4PE was assessed in both naive and activated CD3+ T cells.
(§2) Either naive and/or activated CD3+ T cells were re-suspended in PBS with 0.1% BSA (FACS Buffer) containing Human FcR Blocking Solution at 2×10⁶ cells/mL (5 μl FcR Blocking Solution+[…] FACS Buffer per 1 mL). At a concentration of 2×10⁵ cells/well, 100 μl cells were placed into 2 mL 96 well Assay Blocks and incubated at room temperature for 15 minutes. During the incubation, a titration of the binding antibodies, anti-ICOS (H2L5 hIgG4PE) or IgG4 Isotype Control antibody was prepared as a 2× concentration. […] Following the binding incubation, cells were washed twice in 1 mL of FACS buffer, centrifuging at 400×g for 5 minutes at room temperature.
(§3) Data acquisition and compensation were performed on BD FACS instruments, LSR Fortessa X-20 or FACS Canto II using BD Diva (ver. 8.0) software. Data analysis employed Flow Jo software (ver.10.0.8r1). Results are reported as both MFI (Median Fluorescence Intensity) and Percent of cells positive for human IgG kappa light chain FITC staining out of the total live cells or appropriate parent population. EC50s were determined using Graphpad Prism 5 software (ver. 5.04) with non-linear regression of transformed data (X=(log(X)) using a variable slope with 4 parameters (log(Agonist) vs. response—Variable slope).

[2] = target: T1, human ICOS on human T cells; test: flow cytometry, activated human CD8 T cells, percent FITC positive, donor 1149M52
Procedure: as §1, §2, §3

[3] = target: T1, human ICOS on human T cells; test: flow cytometry, activated human CD8 T cells, percent FITC positive, mean of donors
Procedure: as §2, §3

[4] = target: T2, Human ICOS -Fc (human; rabbit, UniProt Q9Y6W8 21-140); test: SPR, BIAcore T200; antibody captured on anti-human IgG (CM5), ICOS (rabbit Fc) as analyte at 1-256 nM, 25°C, 1:1 model
T2 construct: analyte in the BIAcore T200 run; also called Human ICOS (rabbit Fc); not shown: rabbit Fc
T2 sequence: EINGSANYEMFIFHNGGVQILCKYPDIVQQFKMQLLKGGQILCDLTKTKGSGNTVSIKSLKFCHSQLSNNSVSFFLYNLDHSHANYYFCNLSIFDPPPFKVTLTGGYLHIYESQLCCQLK
Procedure: (§4) The binding kinetics affinity of the humanized H2L5 hIgG4PE antibody was determined used the BIAcore T200 Anti-human IgG on Fc2 of a CM5 chip Anti-ICOS H2L5 hIgG4PE captured on the surface. Anti-human IgG surface blocked with […] hIgG1 control to prevent non-specific binding of rabbit Fc. Human and cyno ICOS (rabbit Fc) passed over the captured antibodies at 256 nM, 64 nM, 16 nM, 4 nM and 1 nM. Buffer alone was used to double reference binding curves. MgCl₂ was used to regenerate surface. Run carried out at 25° C. Data fitted to 1:1 model using T200 evaluation software. Antibody concentration: 2.5 μg/mL
(§5) The ICOS binding data was fitted to a 1:1 kinetics model using the T200 data analysis software.

[5] = target: T3, Cyno ICOS-Fc (cynomolgus; rabbit, UniProt A0A2K5TQR6 21-140); test: as above
T3 construct: analyte in the BIAcore T200 run; also called cyno ICOS (rabbit Fc); cynomolgus ICOS; not shown: Rabbit Fc and any linker
T3 sequence: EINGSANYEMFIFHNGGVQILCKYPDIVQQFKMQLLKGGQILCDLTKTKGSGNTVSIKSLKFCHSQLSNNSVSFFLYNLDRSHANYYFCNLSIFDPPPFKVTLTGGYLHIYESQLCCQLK
Procedure: as §4, §5

EC50 [1]: 1.31 µg/mL
EC50 [2]: 0.547 µg/mL
EC50 [3]: 0.692 µg/mL
Kd [4]: 1.34 nM
koff [4]: 0.000396 s⁻¹
kon [4]: 297000 M⁻¹ s⁻¹
Kd [5]: 0.949 nM
koff [5]: 0.000371 s⁻¹
kon [5]: 391000 M⁻¹ s⁻¹
B1: H2L5 hIgG4PE (antibody)
heavy: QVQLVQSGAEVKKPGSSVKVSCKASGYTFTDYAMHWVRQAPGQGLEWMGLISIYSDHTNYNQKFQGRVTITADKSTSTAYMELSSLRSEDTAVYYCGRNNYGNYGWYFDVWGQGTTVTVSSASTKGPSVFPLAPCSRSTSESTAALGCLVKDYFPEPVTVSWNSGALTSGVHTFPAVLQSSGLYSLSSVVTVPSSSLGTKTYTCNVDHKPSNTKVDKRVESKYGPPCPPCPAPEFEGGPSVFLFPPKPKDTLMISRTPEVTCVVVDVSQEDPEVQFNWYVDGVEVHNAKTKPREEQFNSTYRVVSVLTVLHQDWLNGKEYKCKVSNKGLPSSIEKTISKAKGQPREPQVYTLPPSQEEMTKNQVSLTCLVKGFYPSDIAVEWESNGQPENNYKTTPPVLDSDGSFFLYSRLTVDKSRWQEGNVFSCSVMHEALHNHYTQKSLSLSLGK
light: EIVLTQSPATLSLSPGERATLSCSASSSVSYMHWYQQKPGQAPRLLIYDTSKLASGIPARFSGSGSGTDYTLTISSLEPEDFAVYYCFQGSGYPYTFGQGTKLEIKRTVAAPSVFIFPPSDEQLKSGTASVVCLLNNFYPREAKVQWKVDNALQSGNSQESVTEQDSKDSTYSLSSTLTLSKADYEKHKVYACEVTHQGLSSPVTKSFNRGEC
notes: also called 422 H2L5 hIgG4PE; H2L5 IgG4PE; copies: 2 + 2

Source: patent US20200140551A1 (GlaxoSmithKline, published 2020)
